Laboratory results from the supplement of paper PMC10126150.
± gives the standard deviation of the averaged measurements.

System: ATP
Assay: switch fluorescence ratio, 500 uM ATP over buffer (Cy3 cluster intensity, sum of 5 cycles each) (fold (ratio)); higher = stronger signal-on switching upon ATP binding; sequences stand for … in TCGTCGGCAGCGTCAGATGTGTATAAGAGACAGTTTTTTTTTTTTTTTTTTTTTTTTT…TC
Conditions: aptamer strand: ATP DNA aptamer (quencher-CACCTGGGGGAGTATTGCGGAGGAAGG + anchor), 100 nM annealed; ATP concentration: 500 uM
Procedure, shortened: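 The quencher-labelled ATP aptamer, at 100 nM, was annealed to Cy3-labelled switching-strand clusters on a modified Illumina MiSeq flow-cell. The clusters were imaged in selection buffer, then after 15 min with 500 uM ATP at 22 °C, and this buffer/ATP cycle ran five times with NaOH stripping and re-annealing between runs. Per-cluster fluorescence ratios, summed target-cycle over summed buffer-cycle Cy3 intensity, were averaged per switch-domain sequence. Clusters outside 100-1000 RFU were excluded.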
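Note: ATP exposure 15 min at 22 °C before imaging.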

Sequence	switch fluorescence ratio
GTTGGAATGT	1.03 ± 0.018
GTTGGACAGA	1.03 ± 0.015
GTTGGACCAA	1.021 ± 0.0027
GTTGGAGGGG	0.985 ± 0.03
GTTGGAGGTG	1.06 ± 0.012
GTTGGAGGTT	0.9921 ± 0.0052
GTTGGAGTTA	0.976 ± 0.023
GTTGGATTGG	0.996 ± 0.019
GTTGGATTTC	1.01 ± 0.047
GTTGGCACTG	1.036 ± 0.0053
GTTGGCGAGT	1.01 ± 0.032
GTTGGCGGGC	0.997 ± 0.036
GTTGGGAGGG	0.985 ± 0.012
GTTGGGCGGA	0.993 ± 0.029
GTTGGGGATG	1.02 ± 0.026
GTTGGGGCGG	1.01 ± 0.057
GTTGGGGCTC	1.01 ± 0.04
GTTGGGGGGA	1 ± 0.033
GTTGGGGGTC	0.995 ± 0.011
GTTGGGTGGA	1.0356 ± 0.00032
GTTGGGTGGT	0.968 ± 0.01
GTTGGTACGT	1.01 ± 0.03
GTTGGTCTAT	0.9778 ± 0.0064
GTTGGTGAGT	0.989 ± 0.015
GTTGGTGCAC	0.98 ± 0.04

Sequence	switch fluorescence ratio
GTTGGTGGTG	0.9719 ± 0.0029
GTTGGTTAAT	0.966 ± 0.054
GTTGGTTGGA	0.983 ± 0.022
GTTGGTTTGT	0.986 ± 0.019
GTTGGTTTTC	0.99 ± 0.036
GTTGTAGACA	0.9847 ± 0.0048
GTTGTAGTCG	1.02 ± 0.038
GTTGTATGAT	0.9841 ± 0.0096
GTTGTATTTT	0.989 ± 0.022
GTTGTCCATA	1.015 ± 0.0029
GTTGTGATCT	0.989 ± 0.015
GTTGTGATGT	1 ± 0.013
GTTGTGCATA	1.02 ± 0.03
GTTGTGGGGT	0.976 ± 0.025
GTTGTGGTGT	1.02 ± 0.014
GTTGTGTGTA	0.9921 ± 0.0082
GTTGTGTGTG	0.974 ± 0.041
GTTGTTAACT	0.999 ± 0.048
GTTGTTATGG	0.988 ± 0.017
GTTGTTCGGT	1.01 ± 0.015
GTTGTTTAAT	1.006 ± 0.0081
GTTGTTTAGG	0.953 ± 0.023
GTTGTTTGCG	0.953 ± 0.023
GTTTAACTAT	1.015 ± 0.0038
GTTTAAGGAG	1.02 ± 0.066

Sequence	switch fluorescence ratio
GTTTAAGGCC	1.01 ± 0.043
GTTTAAGGCT	1.02 ± 0.088
GTTTAAGGGT	0.996 ± 0.055
GTTTAAGGTT	1.08 ± 0.2
GTTTACATTG	0.985 ± 0.042
GTTTACTATA	1.06 ± 0.049
GTTTAGACGT	1.01 ± 0.011
GTTTAGGGGT	1.03 ± 0.081
GTTTAGGTTT	1 ± 0.019
GTTTAGTC	0.976 ± 0.025
GTTTATATCC	1.02 ± 0.013
GTTTATCGCT	1.023 ± 0.0077
GTTTATGGAC	1.02 ± 0.011
GTTTATTCGC	0.998 ± 0.043
GTTTATTGAA	1.024 ± 0.0036
GTTTCACGGT	1.003 ± 0.0079
GTTTCAGTGT	0.972 ± 0.021
GTTTCATTTT	1.01 ± 0.012
GTTTCGCGAC	1.19 ± 0.026
GTTTCGGGGG	0.9895 ± 0.006
GTTTCTTCGA	0.973 ± 0.013
GTTTGAATAT	0.984 ± 0.047
GTTTGAGGGC	0.985 ± 0.052
GTTTGATCAG	0.941 ± 0.011
GTTTGCAACG	0.986 ± 0.021

Sequence	switch fluorescence ratio
GTTTGCCCTG	0.99 ± 0.022
GTTTGCTATT	0.992 ± 0.032
GTTTGCTGGT	1 ± 0.015
GTTTGGAGGC	1.01 ± 0.016
GTTTGGAGGG	0.979 ± 0.029
GTTTGGAGGT	0.992 ± 0.03
GTTTGGAGTG	1 ± 0.041
GTTTGGGGCA	0.994 ± 0.033
GTTTGGGGCG	1.01 ± 0.035
GTTTGGGGCT	0.989 ± 0.019
GTTTGGGGGT	1.04 ± 0.12
GTTTGGGTGC	1.072 ± 0.0055
GTTTGGGTTA	1.01 ± 0.016
GTTTGGTGC	1.02 ± 0.022
GTTTGTAACG	1.02 ± 0.015
GTTTGTACCT	1.13 ± 0.1
GTTTGTACGA	0.97621 ± 0.0002
GTTTGTTCGC	0.997 ± 0.076
GTTTGTTTTT	0.976 ± 0.032
GTTTTAAAAG	0.979 ± 0.01
GTTTTAAGCT	1.023 ± 0.0058
GTTTTACGTG	0.998 ± 0.024
GTTTTAGCGG	0.964 ± 0.027
GTTTTAGCTT	1 ± 0.011
GTTTTAGTGG	0.9867 ± 0.0089

Sequence	switch fluorescence ratio
GTTTTATGTA	1.025 ± 0.0069
GTTTTATTAT	1.017 ± 0.0017
GTTTTCGGCC	0.996 ± 0.029
GTTTTCGGCG	0.981 ± 0.035
GTTTTGAACA	0.983 ± 0.034
GTTTTGATCA	1 ± 0.016
GTTTTGCATA	1.01 ± 0.028
GTTTTGCCTC	0.984 ± 0.01
GTTTTGCGAA	0.9957 ± 0.0086
GTTTTGGCTT	0.983 ± 0.021
GTTTTGGGTG	1.09 ± 0.058
GTTTTGGGTT	0.977 ± 0.017
GTTTTGGTAT	1.01 ± 0.0052
GTTTTGGTG	1.08 ± 0.12
GTTTTGGTGG	0.998 ± 0.029
GTTTTGGTTA	1.01 ± 0.014
GTTTTGTTGA	1.02 ± 0.021
GTTTTGTTTT	0.9758 ± 0.0063
GTTTTTAAGA	1.03 ± 0.022
GTTTTTAGAC	1.03 ± 0.014
GTTTTTAGT	1.006 ± 0.0027
GTTTTTCCTT	0.998 ± 0.022
GTTTTTCGGT	0.981 ± 0.026
GTTTTTG	0.984 ± 0.031
GTTTTTGAAA	0.982 ± 0.037

Sequence	switch fluorescence ratio
GTTTTTGGTG	1 ± 0.018
GTTTTTTAAT	1.015 ± 0.0061
GTTTTTTCTT	0.971 ± 0.051
GTTTTTTGAA	0.9764 ± 0.0021
GTTTTTTGCC	1 ± 0.034
GTTTTTTGTA	0.994 ± 0.022
GTTTTTTTTA	0.989 ± 0.037
TAAAAAACCT	1.57 ± 0.39
TAAAAAATAC	1.67 ± 0.74
TAAAAAGTGG	0.976 ± 0.038
TAAAAAGTTT	0.997 ± 0.03
TAAAAATGTT	0.988 ± 0.021
TAAAACCCGC	1.05 ± 0.032
TAAAACCGGT	1.02 ± 0.018
TAAAAGAAGA	0.962 ± 0.016
TAAAAGACCG	1.077 ± 0.007
TAAAAGACGG	1.08 ± 0.056
TAAAAGCCTT	1.06 ± 0.043
TAAAAGCTTT	1.02 ± 0.029
TAAAAGGACC	1.09 ± 0.023
TAAAAGGGAT	1.01 ± 0.023
TAAAAGGTTG	0.989 ± 0.033
TAAAAGGTTT	1 ± 0.032
TAAAAGTATA	0.985 ± 0.018
TAAAAGTTTT	1.01 ± 0.011

Sequence	switch fluorescence ratio
TAAAATAAAG	0.993 ± 0.033
TAAAATACTT	1.11 ± 0.16
TAAAATATTT	1.05 ± 0.069
TAAAATCAGT	0.992 ± 0.046
TAAAATGCGT	0.99954 ± 0.00034
TAAAATGTGA	0.963 ± 0.021
TAAAATTATA	1.02 ± 0.021
TAAAATTTAG	1 ± 0.04
TAAAATTTAT	0.994 ± 0.028
TAAAATTTGT	1.01 ± 0.05
TAAACCGCGG	1.01 ± 0.059
TAAACGGGGA	0.986 ± 0.057
TAAACGGTCA	1.07 ± 0.022
TAAAGAAAAG	0.988 ± 0.011
TAAAGAAGAG	0.977 ± 0.03
TAAAGAGTAG	1 ± 0.042
TAAAGATGAT	1.01 ± 0.012
TAAAGCCGGT	1.009 ± 0.0023
TAAAGCGCGG	1.074 ± 0.0037
TAAAGGAAAA	1.01 ± 0.015
TAAAGGACGG	1.01 ± 0.038
TAAAGGAGGT	1.01 ± 0.046
TAAAGGATCC	1.02 ± 0.041
TAAAGGATTC	0.979 ± 0.045
TAAAGGCGCG	0.985 ± 0.012

Sequence	switch fluorescence ratio
TAAAGGCGGT	0.983 ± 0.042
TAAAGGGAAA	1.26 ± 0.37
TAAAGGGAGT	1 ± 0.024
TAAAGGGATT	0.994 ± 0.032
TAAAGGGGCT	1.04 ± 0.049
TAAAGGGGGA	0.983 ± 0.039
TAAAGGGTAT	0.988 ± 0.032
TAAAGGTTAC	1.03 ± 0.028
TAAAGTGTGC	0.9727 ± 0.0042
TAAAGTGTGG	0.992 ± 0.027
TAAATAGCTT	1.08 ± 0.17
TAAATAGGGA	1.01 ± 0.03
TAAATATCGT	1 ± 0.013
TAAATATTGT	1.01 ± 0.016
TAAATATTTA	0.976 ± 0.05
TAAATCGGGA	0.9928 ± 0.0037
TAAATCGGGT	1 ± 0.013
TAAATGAAGG	1.04 ± 0.048
TAAATGCGCC	1.09 ± 0.022
TAAATGGAA	1 ± 0.024
TAAATGGGTT	1 ± 0.027
TAAATGGTTC	0.969 ± 0.027
TAAATGTGTA	1.01 ± 0.036
TAAATTAAGT	1.03 ± 0.029
TAAATTATGG	0.996 ± 0.021
